Experimental data reported in the supplement of paper PMC5998384.

Legend:
HeLa Kyoto [1] = test: solubility in G1/S (NP-40 vs SDS abundance) (log2 ratio); higher = more soluble; conditions: cell cycle stage: G1/S
HeLa Kyoto [2] = test: solubility change mitosis vs G1/S (difference of NP-40 vs SDS log2 ratios) (log2 ratio difference); higher = more soluble in mitosis
HeLa Kyoto [3] = test: thermal stability score vs G1/S (z-score of summed log2 fold changes over temperatures); higher = more thermally stable than in G1/S
[4] = cell cycle stage: early G1 (4.5 h after nocodazole release)
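For solubility change mitosis vs G1/S (difference of NP-40 vs SDS log2 ratios) in this document: synchronized HeLa Kyoto cells (double thymidine block for G1/S, nocodazole release for mitosis), protein amounts in NP-40 versus SDS lysates quantified by mass spectrometry, three biological replicates.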
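For solubility in G1/S (NP-40 vs SDS abundance) in this document: HeLa Kyoto cells arrested at G1/S by double thymidine block, proteins quantified by TMT10plex mass spectrometry in mild NP-40 versus SDS extracts, three biological replicates.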
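For thermal stability score vs G1/S (z-score of summed log2 fold changes over temperatures) in this document: synchronized HeLa Kyoto cells, proteins quantified by TMT10plex mass spectrometry, three biological replicates, mitosis taken 0.5 h after nocodazole release, G1/S directly after double thymidine block.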

Sequence | solubility in G1/S (log2) (HeLa Kyoto [1]) | solubility change mitosis (log2) (HeLa Kyoto [2]) | thermal stability score (HeLa Kyoto [3]; [4]) | thermal stability score (HeLa Kyoto [3]; cell cycle stage: mitosis)
MQRRRRPPPPTSRLPEGCGGGGGGSEEVEVQFSAGRWGSAAAVSAAAAAATRSTEEEEERLEREHFWKIINAFRYYGTSMHERVNRTERQFRSLPANQQKLLPQFLLHLDKIRKCIDHNQEILLTIVNDCIHMFENKEYGEDGNGKIMPASTFDMDKLKSTLKQFVRDWSETGKAERDACYQPIIKEILKNFPKERWDPSKVNILVPGAGLGRLAWEIAMLGYACQGNEWSFFMLFSSNFVLNRCSEINKYKLYPWIHQFSNNRRSADQIRPIFFPDVDPHSLPPGSNFSMTAGDFQEIYSECNTWDCIATCFFIDTAHNVIDYIDTIWKILKPGGIWINLGPLLYHFENLANELSIELSYEDIKNVVLQYGFKVEVEKESVLSTYTVNDLSMMKYYYECVLFVVRKPQ [CARNMT1] | -0.164 | -0.117 | 1.2 | 1.42
MQTSEREGSGPELSPSVMPEAPLESPPFPTKSPAFDLFNLVLSYKRLEIYLEPLKDAGDGVRYLLRWQMPLCSLLTCLGLNVLFLTLNEGAWYSVGALMISVPALLGYLQEVCRARLPDSELMRRKYHSVRQEDLQRGRLSRPEAVAEVKSFLIQLEAFLSRLCCTCEAAYRVLHWENPVVSSQFYGALLGTVCMLYLLPLCWVLTLLNSTLFLGNVEFFRVVSEYRASLQQRMNPKQEEHAFESPPPPDVGGKDGLMDSTPALTPTEDLTPGSVEEAEEAEPDEEFKDAIEETHLVVLEDDEGAPCPAEDELALQDNGFLSKNEVLRSKVSRLTERLRKRYPTNNFGNCTGCSATFSVLKKRRSCSNCGNSFCSRCCSFKVPKSSMGATAPEAQRETVFVCASCNQTLSK [ZFYVE27] | -0.196 | -0.198 | 0.202 | -1.24
MRGKTFRFEMQRDLVSFPLSPAVRVKLVSAGFQTAEELLEVKPSELSKEVGISKAEALETLQIIRRECLTNKPRYAGTSESHKKCTALELLEQEHTQGFIITFCSALDDILGGGVPLMKTTEICGAPGVGKTQLCMQLAVDVQIPECFGGVAGEAVFIDTEGSFMVDRVVDLATACIQHLQLIAEKHKGEEHRKALEDFTLDNILSHIYYFRCRDYTELLAQVYLLPDFLSEHSKVRLVIVDGIAFPFRHDLDDLSLRTRLLNGLAQQMISLANNHRLAVILTNQMTTKIDRNQALLVPALGESWGHAATIRLIFHWDRKQRLATLYKSPSQKECTVLFQIKPQGFRDTVVTSACSLQTEGSLSTRKRSRDPEEEL [RAD51C] | 0.00866 | 0.0331 | -0.288 | -0.541
MSENLDKSNVNEAGKSKSNDSEEGLEDAVEGADEALQKAIKSDSSSPQRVQRPHSSPPRFVTVEELLETARGVTNMALAHEIVVNGDFQIKPVELPENSLKKRVKEIVHKAFWDCLSVQLSEDPPAYDHAIKLVGEIKETLLSFLLPGHTRLRNQITEVLDLDLIKQEAENGALDISKLAEFIIGMMGTLCAPARDEEVKKLKDIKEIVPLFREIFSVLDLMKVDMANFAISSIRPHLMQQSVEYERKKFQEILERQPNSLDFVTQWLEEASEDLMTQKYKHALPVGGMAAGSGDMPRLSPVAVQNYAYLKLLKWDHLQRPFPETVLMDQSRFHELQLQLEQLTILGAVLLVTFSMAAPGISSQADFAEKLKMIVKILLTDMHLPSFHLKDVLTTIGEKVCLEVSSCLSLCGSSPFTTDKETVLKGQIQAVASPDDPIRRIMESRILTFLETYLASGHQKPLPTVPGGLSPVQRELEEVAIKFARLVNYNKMVFCPYYDAILSKILVRS [TCP11L1] | 0.346 | 0.1 | 1.37 | 1.4
MSGPLEGADGGGDPRPGESFCPGGVPSPGPPQHRPCPGPSLADDTDANSNGSSGNESNGHESRGASQRSSHSSSSGNGKDSALLETTESSKSTNSQSPSPPSSSIAYSLLSASSEQDNPSTSGCSSEQSARARTQKELMTALRELKLRLPPERRGKGRSGTLATLQYALACVKQVQANQEYYQQWSLEEGEPCSMDMSTYTLEELEHITSEYTLQNQDTFSVAVSFLTGRIVYISEQAAVLLRCKRDVFRGTRFSELLAPQDVGVFYGSTAPSRLPTWGTGASAGSGLRDFTQEKSVFCRIRGGPDRDPGPRYQPFRLTPYVTKIRVSDGAPAQPCCLLIAERIHSGYEAPRIPPDKRIFTTRHTPSCLFQDVDERAAPLLGYLPQDLLGAPVLLFLHPEDRPLMLAIHKKILQLAGQPFDHSPIRFCARNGEYVTMDTSWAGFVHPWSRKVAFVLGRHKVRTAPLNEDVFTPPAPSPAPSLDTDIQELSEQIHRLLLQPVHSPSPTGLCGVGAVTSPGPLHSPGSSSDSNGGDAEGPGPPAPVTFQQICKDVHLVKHQGQQLFIESRARPQSRPRLPATGTFKAKALPCQSPDPELEAGSAPVQAPLALVPEEAERKEASSCSYQQINCLDSILRYLESCNLPSTTKRKCASSSSYTTSSASDDDRQRTGPVSVGTKKDPPSAALSGEGATPRKEPVVGGTLSPLALANKAESVVSVTSQCSFSSTIVHVGDKKPPESDIIMMEDLPGLAPGPAPSPAPSPTVAPDPAPDAYRPVGLTKAVLSLHTQKEEQAFLSRFRDLGRLRGLDSSSTAPSALGERGCHHGPAPPSRRHHCRSKAKRSRHHQNPRAEAPCYVSHPSPVPPSTPWPTPPATTPFPAVVQPYPLPVFSPRGGPQPLPPAPTSVPPAAFPAPLVTPMVALVLPNYLFPTPSSYPYGALQTPAEGPPTPASHSPSPSLPALAPSPPHRPDSPLFNSRCSSPLQLNLLQLEELPRAEGAAVAGGPGSSAGPPPPSAEAAEPEARLAEVTESSNQDALSGSSDLLELLLQEDSRSGTGSAASGSLGSGLGSGSGSGSHEGGSTSASITRSSQSSHTSKYFGSIDSSEAEAGAARGGAEPGDQVIKYVLQDPIWLLMANADQRVMMTYQVPSRDMTSVLKQDRERLRAMQKQQPRFSEDQRRELGAVHSWVRKGQLPRALDVMACVDCGSSTQDPGHPDDPLFSELDGLGLEPMEEGGGEQGSSGGGSGEGEGCEEAQGGAKASSSQDLAMEEEEEGRSSSSPALPTAGNCTS [PER1] | 0.0364 | -0.183 | 0.55 | 0.377
MSKISEAVKRARAAFSSGRTRPLQFRIQQLEALQRLIQEQEQELVGALAADLHKNEWNAYYEEVVYVLEEIEYMIQKLPEWAADEPVEKTPQTQQDELYIHSEPLGVVLVIGTWNYPFNLTIQPMVGAIAAGNSVVLKPSELSENMASLLATIIPQYLDKDLYPVINGGVPETTELLKERFDHILYTGSTGVGKIIMTAAAKHLTPVTLELGGKSPCYVDKNCDLDVACRRIAWGKFMNSGQTCVAPDYILCDPSIQNQIVEKLKKSLKEFYGEDAKKSRDYGRIISARHFQRVMGLIEGQKVAYGGTGDAATRYIAPTILTDVDPQSPVMQEEIFGPVLPIVCVRSLEEAIQFINQREKPLALYMFSSNDKVIKKMIAETSSGGVAANDVIVHITLHSLPFGGVGNSGMGSYHGKKSFETFSHRRSCLVRPLMNDEGLKVRYPPSPAKMTQH [ALDH3A1] | 0.316 | -0.153 | 0.258 | -0.475
MSRPVRNRKVVDYSQFQESDDADEDYGRDSGPPTKKIRSSPREAKNKRRSGKNSQEDSEDSEDKDVKTKKDDSHSAEDSEDEKEDHKNVRQQRQAASKAASKQREMLMEDVGSEEEQEEEDEAPFQEKDSGSDEDFLMEDDDDSDYGSSKKKNKKMVKKSKPERKEKKMPKPRLKATVTPSPVKGKGKVGRPTASKASKEKTPSPKEEDEEPESPPEKKTSTSPPPEKSGDEGSEDEAPSGED [NUCKS1] | 0.444 | 0.307 | -0.14 | 1.15
MSSILPFTPPIVKRLLGWKKGEQNGQEEKWCEKAVKSLVKKLKKTGQLDELEKAITTQNVNTKCITIPRSLDGRLQVSHRKGLPHVIYCRLWRWPDLHSHHELRAMELCEFAFNMKKDEVCVNPYHYQRVETPVLPPVLVPRHTEIPAEFPPLDDYSHSIPENTNFPAGIEPQSNIPETPPPGYLSEDGETSDHQMNHSMDAGSPNLSPNPMSPAHNNLDLQPVTYCEPAFWCSISYYELNQRVGETFHASQPSMTVDGFTDPSNSERFCLGLLSNVNRNAAVELTRRHIGRGVRLYYIGGEVFAECLSDSAIFVQSPNCNQRYGWHPATVCKIPPGCNLKIFNNQEFAALLAQSVNQGFEAVYQLTRMCTIRMSFVKGWGAEYRRQTVTSTPCWIELHLNGPLQWLDKVLTQMGSPSIRCSSVS [SMAD3] | -0.184 | 0.0397 | -0.574 | -1.15
MSSMWSEYTIGGVKIYFPYKAYPSQLAMMNSILRGLNSKQHCLLESPTGSGKSLALLCSALAWQQSLSGKPADEGVSEKAEVQLSCCCACHSKDFTNNDMNQGTSRHFNYPSTPPSERNGTSSTCQDSPEKTTLAAKLSAKKQASIYRDENDDFQVEKKRIRPLETTQQIRKRHCFGTEVHNLDAKVDSGKTVKLNSPLEKINSFSPQKPPGHCSRCCCSTKQGNSQESSNTIKKDHTGKSKIPKIYFGTRTHKQIAQITRELRRTAYSGVPMTILSSRDHTCVHPEVVGNFNRNEKCMELLDGKNGKSCYFYHGVHKISDQHTLQTFQGMCKAWDIEELVSLGKKLKACPYYTARELIQDADIIFCPYNYLLDAQIRESMDLNLKEQVVILDEAHNIEDCARESASYSVTEVQLRFARDELDSMVNNNIRKKDHEPLRAVCCSLINWLEANAEYLVERDYESACKIWSGNEMLLTLHKMGITTATFPILQGHFSAVLQKEEKISPIYGKEEAREVPVISASTQIMLKGLFMVLDYLFRQNSRFADDYKIAIQQTYSWTNQIDISDKNGLLVLPKNKKRSRQKTAVHVLNFWCLNPAVAFSDINGKVQTIVLTSGTLSPMKSFSSELGVTFTIQLEANHIIKNSQVWVGTIGSGPKGRNLCATFQNTETFEFQDEVGALLLSVCQTVSQGILCFLPSYKLLEKLKERWLSTGLWHNLELVKTVIVEPQGGEKTNFDELLQVYYDAIKYKGEKDGALLVAVCRGKVSEGLDFSDDNARAVITIGIPFPNVKDLQVELKRQYNDHHSKLRGLLPGRQWYEIQAYRALNQALGRCIRHRNDWGALILVDDRFRNNPSRYISGLSKWVRQQIQHHSTFESALESLAEFSKKHQKVLNVSIKDRTNIQDNESTLEVTSLKYSTSPYLLEAASHLSPENFVEDEAKICVQELQCPKIITKNSPLPSSIISRKEKNDPVFLEEAGKAEKIVISRSTSPTFNKQTKRVSWSSFNSLGQYFTGKIPKATPELGSSENSASSPPRFKTEKMESKTVLPFTDKCESSNLTVNTSFGSCPQSETIISSLKIDATLTRKNHSEHPLCSEEALDPDIELSLVSEEDKQSTSNRDFETEAEDESIYFTPELYDPEDTDEEKNDLAETDRGNRLANNSDCILAKDLFEIRTIKEVDSAREVKAEDCIDTKLNGILHIEESKIDDIDGNVKTTWINELELGKTHEIEIKNFKPSPSKNKGMFPGFK [BRIP1] | -0.0862 | -0.00076 | 0.36 | 1.88
